Laboratory results: patent publication US20230107644A1 (UNIVERSITY OF ROCHESTER, published 2023)

Key:
Test in all cases: cell-based or functional assay
[1] = biological target: HA (H3) of influenza virus A/Wyoming/3/2003 (influenza A virus A/Wyoming/3/2003 …)
[2] = biological target: NA (N2) of influenza virus A/Switzerland/9715283/2013 (influenza A virus …)
[3] = biological target: NA (N2) of influenza virus A/Victoria/210/2009 (influenza A virus A/Victoria/210/2009 …)
[4] = biological target: NA (N2) of influenza virus A/Wyoming/3/2003 (influenza A virus A/Wyoming/3/2003 …)

Row | Binder | NT50 [1] [µg/mL] | NT50 [2] [µg/mL] | NT50 [3] [µg/mL] | NT50 [4] [µg/mL]
1 | 1092C4 hmAb (antibody, V domains shown) VH: EVQLVQSGAEVKKPGASVKVSCKASGYSFTRYGISWVRQAPGQGLEWMGWISAYTGNTDYAQKFQGRITMTTDTSTSTAYMELRSLRSDDTAVYYCARDLPQGVVILGSYYYGMDVWGQGNTVTVSS VL: EIVLTQSPGTLSLSPGERATLSCRASQSVTSRYLAWYQQKLGQAPRLLIYGASSRATGIPDRFSGSGSGTDFTLTISSLEPEDLAVYYCQQSGSPRTFGQGTKVEIK | 1.6 | – | – | –
2 | 1092E4 hmAb (antibody, V domains shown) VH: QVQLVQSGAEVKKPGASVKVSCKASGYSFTRYGISWVRQAPGQGLEWMGWISAYTGNTDYAQKFQGRITMTTDTSTSTVYMELRSLRSDDTAVYYCARDHPQGVVILGSYYYGMDVWGQGNTVTVSS VL: EIVLTQSPGTLSLSPGERATLSCRASQSVTSRYLAWYQQKLGQAPRLLIYGASSRATGIPDRFSGSGSGTDFTLTISSLEPEDFAVYYCQQSGSPRTFGQGTKVEIK | 3.13 | – | – | –
3 | 1122A11 hmAb (antibody, V domains shown) VH: QVQLVQSGAEVSKPGASVKVSCKASGYSFTSQSLGWVRQAPGQGLEWMGIINPSGGITNYAHKFQGRVTMTRDTSTSTVYMELSSLRSEDTALYYCVRDLSHYNEVGHDRAYYYGMDIWGQGTTVTVSS VL: SYELIQPPSVSVSPGQTASITCSGDKLGKKYTCWYQQKPGQSPVLVIYQDNKRPSGIPERFSGSNSGNTATLTISGTQAMDEADYYCQAWDSSAVVFGGGTKLTVL | – | 25 | 25 | 6.25
4 | 1086G8 hmAb (antibody, V domains shown) VH: EVQLLESGGGLVQPGGSLRLSCTASGFTFASDAMNWVRQAPGKGLEWVSAISGNGGITYFADSVKGRFTISRDNSKDTLYLQMDSLRAEDTAVYYCAKGVAPSHFNLLTGYYAGHYYFDFWGQGTLVTVSS VL: EIVMTQSPATLSVSPGERATLSCRASQSVRHNLAWYQHKPGQPPRLLIYGASTRAASVPARFSGSGSGTDFTLTISSLQSEDFAVYYCQQYNHWPPYTFGQGTKLEIK | 0.78 | – | – | –
